Like-named read-outs stand apart in the source and are kept apart here. Bridge positions count the residues as written; N and C are the ends. Square brackets hold non-standard residues; d marks the D form. Ends that are not written are not given here. Peptide text beside a SMILES is read from it. Tyr(3,5-Br2) = N[C@@H](Cc1cc(Br)c(O)c(Br)c1)C(=O)O
Experiments:
EBP-Ig [1] = target: T1, EBP-Ig (Homo sapiens, UniProt P19235); assay: EBP-Ig Flash Plate EPO radioligand binding assay; conditions: for IC50: read-out: EBP-Ig Binding IC 50; for competition in EBP-Ig binding assay: result in words
T1 construct: one encoding amino acids 1-225 of the extracellular domain of the mature hEPOR; made in house
T1 sequence (P19235 with tags, fused parts or gaps limits assumed): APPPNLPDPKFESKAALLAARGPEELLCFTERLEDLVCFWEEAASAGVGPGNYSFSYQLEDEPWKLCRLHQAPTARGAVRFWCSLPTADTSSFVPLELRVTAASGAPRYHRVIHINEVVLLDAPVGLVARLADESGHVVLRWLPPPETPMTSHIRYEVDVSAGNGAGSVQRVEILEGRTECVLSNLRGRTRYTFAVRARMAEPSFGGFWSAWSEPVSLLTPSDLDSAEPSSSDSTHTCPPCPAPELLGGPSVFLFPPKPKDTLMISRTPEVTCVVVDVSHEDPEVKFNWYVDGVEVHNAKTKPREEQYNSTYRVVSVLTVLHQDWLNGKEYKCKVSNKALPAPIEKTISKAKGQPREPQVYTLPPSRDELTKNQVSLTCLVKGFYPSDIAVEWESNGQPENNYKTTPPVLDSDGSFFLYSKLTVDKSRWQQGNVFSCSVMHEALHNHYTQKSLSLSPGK
From the text: The interaction of biotin and strepavidin is frequently employed to capture and effectively immobilize reagents useful in assay protocols and has been employed here as a simple method to capture and immobilize EBP-Ig. EBP-Ig is initially randomly modified with an amine reactive derivative of biotin to produce biotinylated-EBP-Ig. Use of strepavidin coated plates allows the capture of the biotinylated EBP-Ig on the surface of a scintillant impregnated coated well (Flash plates, NEN-DuPont). […] The amount of light produced was quantified to estimate the amount of ligand binding. The specific assay format was suitable for the multi-well plate capacity of a Packard TopCount Microplate Scintillation counter.
Biotinylated EBP-Ig (3S mutant) was prepared as follows. EBP-Ig (3 ml, OD280 2.9) was exchanged into 50 mM sodium bicarbonate, pH 8.5 using a Centriprep 10 ultrafiltration device. […] 10 μl of a 4 mg/ml solution of NHS-LC-Biotin (Pierce) was added and the reaction mixture placed on ice in the dark for two hours. Unreacted biotin was removed by exchange of the reaction buffer into PBS in a Centriprep 10 device and the protein reagent aliquoted and stored at […].
All wells were adjusted to a final DMSO concentration of 5%. […] After all additions were made, the plate was covered with an adhesive top seal and placed in the dark at room temperature overnight. The next day all liquid was aspirated from the wells to limit analyte dependent quench of the signal, and the plates were counted on a Packard TOPCOUNT Microplate Scintillation Counter. […] Corrected total binding (CTB) was calculated as: TB-NSB=CTB. The concentration of test peptide which reduced CTB to 50% was reported as the IC50.

EBP [2] = target: T2, EBP (Homo sapiens, UniProt P19235); assay: EBP bead competitive binding assay vs [125I]EPO; conditions: for competition in EBP-bead binding assay: result in words
T2 construct: one encoding amino acids 1-225 of the extracellular domain of the mature hEPOR; made in house; host or cells: E. coli BL21(DE3)pLysS (plasmid pSAM3)
T2 sequence (P19235 25-249): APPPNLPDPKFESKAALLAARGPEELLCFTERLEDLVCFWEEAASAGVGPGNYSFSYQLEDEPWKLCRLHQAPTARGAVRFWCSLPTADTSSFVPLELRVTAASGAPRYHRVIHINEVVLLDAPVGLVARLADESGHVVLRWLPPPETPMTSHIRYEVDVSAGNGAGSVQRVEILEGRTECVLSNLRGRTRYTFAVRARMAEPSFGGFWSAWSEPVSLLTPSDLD
From the text: EBP as produced by the above method contains one free sulfhydryl group which can be modified without affecting the solution phase binding of ligand. In order to immobilize the EBP for equilibrium binding analysis this observation was extended for the covalent attachment of EBP to agarose beads. The iodoacetyl activation chemistry of Sulfolink beads (Pierce Chemical Co, Rockford, Ill.) is specific for free thiols and assures that the linkage is not easily reversible. EBP-Sulfolink beads were made as follows: Sulfolink gel suspension (10 ml) was mixed with coupling buffer (40 ml: 50 mM TRIS, pH 8.3, 5 mM EDTA) and the gel was allowed to settle. The supernatant was removed and the EBP (0.3-1 mg/ml in coupling buffer) to be bound was added directly to the washed beads. The mixture was rocked gently for 30 minutes at room temperature, and the beads were allowed to settle for 1 hour at room temperature. The supernatant was removed and saved, and the beads were washed twice with 20 ml of coupling buffer. The washes were retained as well. The beads were then treated with 20 ml of 0.05 M cysteine for 30 minutes at room temperature to block unbound sites. Finally, the beads were washed with 50 ml of 1 M NaCl, then with 30 ml of PBS, and resuspended in 20 ml of PBS and stored at 4° C. The amount of EBP which was covalently bound to the beads was determined by comparing the OD280 of the original EBP solution to the total OD280 recovered in the reaction supernatant and the two 20 ml washes. Typically, 40-60% of the applied EBP remains associated with the beads.
Competitive binding assays of peptides were performed as described herein. Individual peptides were dissolved in DMSO to prepare a stock solution of 1 mM. […] Initial assay points with no added peptide were included in each assay to determine total binding. Binding mixtures were incubated overnight at room temperature with gentle rocking. The beads were then collected using Micro-columns (Isolab, Inc.) and washed with 3 mL of wash buffer (PBS/5% BSA). The columns containing the washed beads were placed in 12×75 mm glass tubes and bound radioactivity levels determined in a gamma counter.

EBP-Ig [3] = target: T1, EBP-Ig; assay: Fluorescence polarization competitive binding assay with fluorescein-RWJ 61718; conditions: for competition in FP/EBP-Ig assay: fluorescein-RWJ 61718 as labelled ligand, result in words; for IC50: read-out: FP/EBP-Ig IC50
Experimental: Fluorescence polarization (FP) is a useful technique capable of providing information on changes in molecular volume which occur upon the association or dissociation of two molecules. […] Conversely, if a non-fluorescent competitor molecule is added to this complex then a decrease in the fluorescence polarization value can be anticipated [Checovich, W. J., Bolger, R. E. & Burke, T. Fluorescence polarization-a new tool for cell and molecular biology, Nature 375, 254-256 (1995)]. RWJ 61718 was labeled with a fluorescein reporter group by treating 10 mg of peptide solubilized in 3 ml of PBS with 17.9 mg of fluorescein isothiocyanate dissolved in 1 ml DMSO (added in 100 μl aliquots). RWJ 61718 contained a single amine (N-terminus) and 1:1 label incorporation was expected. This mixture was placed on ice and the solution cleared by the addition of 1.0 ml of DMSO. Following a 34 hour incubation at 4° C., fluorescein labeled RWJ 61718 was isolated by reverse phase HPLC. The entire reaction mixture was diluted 1:2 with 0.1% trifluoroacetic acid (TFA; mobile phase A), pumped onto a C-18 reversed phase preparative column (Vydac #218tp54) at 8 ml/min and eluted with a 90 minute linear gradient of 0-100% mobile phase B (acetonitrile containing 0.7% TFA). Fractions containing fluorescent products (excitation wavelength 488 nm, emission wavelength 530 nm) at 530 nm were collected and lyophilized. A highly fluorescent peak eluting at near 60 minutes (ca 60% mobile phase B) was determined to be the desired product by monitoring FP changes in the presence of EBP-Ig.
A competitive FP assay using fluorescein labeled RWJ 61718 as the receptor ligand was established as follows using a Fluorescence Polarization Microtiter System (Jolley Consulting). Test peptides at variable concentrations and EBP-Ig (3S mutant, 0.025 mg/ml) were incubated for 1 hour at room temperature in 90 μl PBS and dispensed into a Dynatech Microfluor plate 96 well plate. Fluorescein-RWJ 61718 was added to each well (10 μl in 0.1% TFA) to a final concentration of 2.5 μM followed by an additional 1 hr incubation at room temperate in the dark. Values for milliPolarization (mP) were obtained at an instrument voltage setting of 8.0. Baseline peptide values were determined from wells which contained only labeled peptide and PBS. Total mP readings were determined in test wells which contained labeled peptide and EBP-Ig only. Peptide concentration dependent competitive reduction in mP values were determined and an IC50 value calculated.

FDC-P1/hER cells = assay: EPO dependent cell proliferation assay; assay type: cell-based, human EPO receptor; conditions: for FDCP-P1-hER ED50 / EC50: amount of peptide for one half of maximal activity of recombinant EPO, 42 h + 6 h [3H]thymidine; for EPO mimetic activity / proliferative capacity: cell proliferation, result in words; for EC50: 2880 min, read-out: FDCP-P1-hER ED50
Experimental: At 24 hours, the cells were counted, resuspended at 800,000 cells/ml and dispensed at 40,000 cells/well. Stock solutions of the respective peptides (10 mM in DMSO) were prepared and dispensed in triplicate to final concentrations of 1×10^-10 M through 1×10^-5 M and adjusted to a final volume of 0.2 ml. […] A standard EPO dose response curve was generated with each assay series. After a 42 hours incubation at 37° C. (about 2 cell doublings) 1 μCi/well of [^3 H] thymidine was added and the incubation continued for 6 hours at which time the cells were harvested and counted to assess [^3 H] thymidine incorporation as a measure of cell proliferation.

EBP [4] = target: T2, EBP; assay: DPDPB crosslinking: dimerization of EBP by EPO mimetic peptides (SDS-PAGE); assay type: biochemical; conditions: 22 μM EBP, 1.1 mM DPDPB, 400 μM peptide, visual detection of dimer product
Experimental: Peptide-mediated receptor dimerization was stabilized for study using the non-water soluble homobifunctional sulfhydryl reactive cross linking reagent DPDPB (1,4-di-[2'-pyridyldithio)propionamido]butane, Pierce Chemical Co., Rockford, Ill.). EBP (22 μM) was incubated in the presence or absence of DPDPB (1.1 mM), 400 μM peptide ligand, 75 μl of PBS, pH 7.5 with all reactions and controls containing a final concentration of 4.4% DMSO and 0.007% TFA. These samples were incubated for 4 hours at room temperature and stored at 4° C. for 12 hours before analysis under reducing and non-reducing conditions by SDS-PAGE (10-20% gradient gels, Integrated Separations Systems, Natick, Mass.).

[5] = EBP-Ig (3S mutant) 0.025 mg/ml, fluorescein-RWJ 61718 2.5 μM
[6] = 0.5 nM [125I]EPO, 1 μg/ml biotinylated EBP-Ig (3S mutant), 5% DMSO, overnight
[7] = 0.5 nM [125I]EPO, 2.5% DMSO, overnight, room temperature

| Molecule | IC50 (EBP-Ig [1]) | IC50 (EBP [2]) | FP/EBP-Ig IC50 (EBP-Ig [3]; [5]) | competition in FP/EBP-Ig assay (EBP-Ig [3]) | FDCP-P1-hER ED50 (FDC-P1/hER cells) | EPO mimetic activity / proliferative capacity (FDC-P1/hER cells) | DPDPB cross-linking (EBP [4]) | DPDPB cross-linking (EBP [4]; listed as 61177) | IC50 (EBP-Ig [3]; [5]) | EC50 (FDC-P1/hER cells) | IC50 (EBP-Ig [1]; [6]) | IC50 (EBP [2]; [7]) | competition in EBP-Ig binding assay (EBP-Ig [1]) | competition in EBP-bead binding assay (EBP [2]) |
| --- | --- | --- | --- | --- | --- | --- | --- | --- | --- | --- | --- | --- | --- | --- |
| CC(C)C[C@@H]1NC(=O)[C@@H]2CCCN2C(=O)CNC(=O)[C@H](Cc2ccccc2)NC(=O)[C@H](Cc2c[nH]cn2)NC(=O)[C@@H](NC(=O)[C@@H](N)CO)CSSC[C@@H](C(=O)N[C@@H](CCCCN)C(N)=O)NC(=O)[C@H](C(C)C)NC(=O)[C@H](Cc2c[nH]c3ccccc23)NC(=O)[C@H]([C@@H](C)O)NC1=O [RWJ 61177] (H-SCHFGPLTWVCK-NH2; disulfide 2-11) | 500 µM | 90 µM | – | – | – | – | – | – | – | – | – | – | – | – |
| CC(C)C[C@@H]1NC(=O)[C@@H]2CCCN2C(=O)CNC(=O)[C@H](Cc2ccccc2)NC(=O)[C@H](Cc2cnc[nH]2)NC(=O)[C@@H](NC(=O)[C@@H](N)CO)CSSC[C@@H](C(=O)N[C@@H](CCCCN)C(N)=O)NC(=O)[C@H](C(C)C)NC(=O)[C@H](Cc2c[nH]c3ccccc23)NC(=O)[C@H]([C@@H](C)O)NC1=O [RWJ 61177] (H-SCHFGPLTWVCK-NH2; disulfide 2-11) | – | – | Inactive | inactive | Inactive | without proliferative capacity | deficient in crosslinking ability | negative | – | – | – | – | – | – |
| GGLYACHMGPMTWVCQPLRG (GGKYACHMGPMTWVCQPKRG) [RWJ 61718] | – | – | – | – | – | with proliferative capacity | positive | – | 0.35 µM | 0.1 µM | 0.1 µM | 3 µM | – | – |
| GGTXSCHFGPLTWVCKPQGG (GGT[Tyr(3,5-Br2)]SCHFGPLTWVCKPQGG-NH2; disulfide 6-15 (inferred)) [RWJ 62021, X = 3,5-dibromo-tyr] | – | – | – | very efficient competitors | Inactive | without proliferative potential | some crosslinking potential | – | 5 µM | – | 400 µM | 150 µM | very poorly | very poorly |
| GGTYSCHFGPLTWVCKPQ [RWJ 61596] | – | – | – | – | – | – | – | – | – | 0.08 µM | – | 8 µM | – | – |
| GGTYSCHFGPLTWVCKPQGG [RWJ 61233] | – | – | – | positive | – | functions as an EPO mimetic | positive | – | 0.5 µM | 0.1 µM | 1 µM | 5 µM | competes at similar levels in both the EBP-bead and EBP-Ig binding assays | competes at similar levels in both the EBP-bead and EBP-Ig binding assays |
| YSCHFGPLTWVCK (YSCHFGPLYWVCK) [RWJ 61279] | – | – | – | – | – | with proliferative capacity | positive | – | – | 8 µM | – | 70 µM | – | – |
